Values joined by “and” are separate entries in the source; they are usually repeats but may differ in a detail not shown here. Equal entries are not always repeated.
T1: recombinant mouse TGF-β RII/Fc chimera protein (mouse; human, UniProt Q62312-1 24-184)
T1 construct: Residue limits are printed only for the human receptor; also called mouse TGFbRII-Fc; mRII-Fc; not shown: Fc region; the assays speak of antigen fused to the human Fc
T1 sequence (looked up): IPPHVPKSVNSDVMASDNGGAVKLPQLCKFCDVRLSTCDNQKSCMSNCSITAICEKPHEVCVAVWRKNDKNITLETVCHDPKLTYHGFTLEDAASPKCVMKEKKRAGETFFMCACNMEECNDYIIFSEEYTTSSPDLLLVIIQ

T2: mouse TGF-βRII on MC3T3-E1 cells (mouse osteoblasts) (mouse, UniProt Q62312 24-567)
T2 sequence (looked up): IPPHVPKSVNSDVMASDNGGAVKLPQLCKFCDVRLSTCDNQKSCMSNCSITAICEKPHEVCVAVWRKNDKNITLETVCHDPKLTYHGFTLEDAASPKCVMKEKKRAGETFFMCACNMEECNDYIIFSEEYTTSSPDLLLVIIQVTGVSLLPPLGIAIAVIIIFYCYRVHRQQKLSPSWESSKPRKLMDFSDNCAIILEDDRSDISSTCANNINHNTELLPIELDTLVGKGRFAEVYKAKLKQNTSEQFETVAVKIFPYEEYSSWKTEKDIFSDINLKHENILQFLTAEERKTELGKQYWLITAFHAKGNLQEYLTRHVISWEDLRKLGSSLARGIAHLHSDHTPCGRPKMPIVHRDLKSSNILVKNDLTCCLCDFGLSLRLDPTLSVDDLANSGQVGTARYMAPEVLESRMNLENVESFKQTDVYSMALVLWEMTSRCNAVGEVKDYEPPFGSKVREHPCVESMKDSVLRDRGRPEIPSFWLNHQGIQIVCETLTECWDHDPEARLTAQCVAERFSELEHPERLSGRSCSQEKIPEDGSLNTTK

B1: DOM23h-843-13 (VHH)
VHH: EVQLLESGGGLVQPGGSLRLSCAASGFTFDQDRMWWVRQAPGKGLEWVSAIESGGHRTYYADSVKGRFTISRDNSKNTLYLQMNSLRAEDTAVYYCANQNKSGRSGFDYWGQGTLVTVSS
notes: human VH dAb, error-prone matured; expressed from pDOM13, tag not described
B2: DOM23h-855-21 (VHH)
VHH: EVQLLESGGGLVQPGGSLRLSCAASGFTFENTSMGWVRQAPGKGLEWVSRIDPKGSHTYYTDSVKGRFTISRDNSKNTLYLQMNSLRAEDTAVYYCAKQRELGKSYFDYWGQGTLVTVSS
notes: as for B1
B3: DOM23h-439-20 (VHH)
VHH: EVQLLESGGGLVQPGGSLRLSCAASGFTFGTEQMWWVRQAPGKGLEFVSRIDSPGGRTYYADSVKGRFTISRDNSKNTLYLQMNSLRAEDTAVYYCAKRHAAGVSGTYFDYWGQGTLVTVSS
notes: as for B1
B4: DOM23h-271-7 (VHH)
VHH: EVQLLESGGGLVQPGGSLRLSCAASGFTFTEYRMWWVRQAPGKGLEWVSAIEPIGNRTYYADSVKGRFTISRDNSKNTLYLQMNSLRAEDTAVYYCAKQIPGRKWTANSRFDYWGQGTLVTVSS
notes: human VH dAb; also called 271-7a; 271-7b
B5: DOM23h-271-40 (VHH)
VHH: EVQLLESGGGLVQPGGSLRLSCAASGFTFTEYRMWWVRQAPGKGLEWVSAIEPIGNRTYYARSVFGRFTISRDNSKNTLYLQMNSLRAEDTAVYYCAKQMPGQKWMAKSRFDYWGQGTLVTVSS
notes: human VH dAb; also called DOM23h-271-22 plus D61R K64F; RF
B6: DOM23h-271-39 (VHH)
VHH: EVQLLESGGGLVQPGGSLRLSCAASGFTFTEYRMWWVRQAPGKGLEWVSAIEPIGNRTYYARSVDGRFTISRDNSKNTLYLQMNSLRAEDTAVYYCAKQMPGQKWMAKSRFDYWGQGTLVTVSS
notes: human VH dAb; also called DOM23h-271-22 plus D61R K64D; RD

What was measured:
[1] = target: T3, human TGF-βRII on cells (SBE-bla HEK 293T cells; A549 cells) (human, UniProt P37173 23-567); assay: cell-based or functional assay
[2] = target: T4, recombinant human TGF-β RII/Fc chimera protein (human, UniProt P37173 24-159); assay: SPR Biacore, against parent DOM23h-843
T4 construct: range 24-159; Made in HEK-F cells; Biotinylated where it was put on SA chips, otherwise captured by anti-human IgG; also called human TGFbRII/Fc; hRII-Fc; not shown: Fc region of human IgG1

[3] = target: T4, recombinant human TGF-β RII/Fc chimera …; assay: SPR Biacore, purified dAb; antigen taken as human TGF-β RII/Fc
[4] = target: T4, recombinant human TGF-β RII/Fc chimera …; assay: SPR Biacore, against parent DOM23h-855
[5] = target: T4, recombinant human TGF-β RII/Fc chimera …; assay: SPR Biacore, against parent DOM23h-439
[6] = target: T4, recombinant human TGF-β RII/Fc chimera …; assay: SPR Biacore T100, human TGFbRII-FC, 1:1 model
Protocol: Triplet or doped libraries in separate CDR1, CDR2 and CDR3 pools were subjected to rounds of phage selection as described above against either biotinylated human TGF-β RII/Fc antigen over 4 rounds in concentrations of 10 nM, 1 nM, 100 pM and 20 pM respectively, or two rounds of selection using 20 pM followed by 2 pM antigen. Inserts from phage selections were cloned into the pDOM10 expression vector and supernatants with off rates improved over parent were selected for further study. Domain antibodies were expressed and purified their affinity and bioactivity against human TGF-β RII/Fc antigen tested on the BIACORE™ T100 and in the Cell sensor assay described above (data not shown).
BIACORE™ analysis was carried out using a capture surface on a CM4 chip. Anti-human IgG was used as the capturing agent and coupled to a CM4 biosensor chip by primary amine coupling. The Antigen molecule fused to the human Fc was captured on this immobilised surface to a level from 250 to 300 resonance units and defined concentrations of Domain antibodies diluted in running buffer were passed over this captured surface. An injection of buffer over the captured antigen surface was used for double referencing. […] All runs were carried out at 25° C. using HBS-EP buffer as running buffer. Data were generated using the BIACORE™ T100 and fitted to the 1:1 binding model inherent to the software.

[7] = target: T4, recombinant human TGF-β RII/Fc chimera …; assay: SPR Biacore, human TGFbRII-FC, 1:1 model (poor fit, ranking only)
[8] = target: T4, recombinant human TGF-β RII/Fc chimera …; assay: SPR Biacore
[9] = target: T1, recombinant mouse TGF-β RII/Fc chimera …; assay: SPR Biacore
[10] = target: T5, cynomolgus TGF-β RII/Fc (cynomolgus); assay: SPR Biacore
T5 construct: extracellular domain; also called Cyno TGFBRII; Cyno TGFbRII

[11] = target: T3, human TGF-βRII on cells (SBE-bla HEK …); assay: cell-based or functional assay; remark: listed apart in the source
[12] = target: T2, mouse TGF-βRII on MC3T3-E1 cells (mouse …); assay: cell-based or functional assay

T3 sequence (P37173 23-567): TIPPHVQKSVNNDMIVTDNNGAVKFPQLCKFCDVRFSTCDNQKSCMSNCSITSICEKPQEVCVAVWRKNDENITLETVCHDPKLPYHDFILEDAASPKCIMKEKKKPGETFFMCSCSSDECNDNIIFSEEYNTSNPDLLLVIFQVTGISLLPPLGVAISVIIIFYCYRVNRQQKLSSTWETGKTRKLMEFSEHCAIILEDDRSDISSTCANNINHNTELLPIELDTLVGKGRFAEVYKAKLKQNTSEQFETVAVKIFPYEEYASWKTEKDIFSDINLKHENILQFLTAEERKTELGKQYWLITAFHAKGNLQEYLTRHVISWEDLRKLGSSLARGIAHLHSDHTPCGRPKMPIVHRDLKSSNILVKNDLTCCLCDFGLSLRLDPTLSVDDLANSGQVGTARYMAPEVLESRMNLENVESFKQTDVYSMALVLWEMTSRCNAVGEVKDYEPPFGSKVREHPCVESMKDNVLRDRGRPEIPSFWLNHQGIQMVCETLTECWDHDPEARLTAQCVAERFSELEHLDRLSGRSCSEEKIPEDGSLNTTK
T4 sequence (P37173 24-159 limits assumed, stated change not applied): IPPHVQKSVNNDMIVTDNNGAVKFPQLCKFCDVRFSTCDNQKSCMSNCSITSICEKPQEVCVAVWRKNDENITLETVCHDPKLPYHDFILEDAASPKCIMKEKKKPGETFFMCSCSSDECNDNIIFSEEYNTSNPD

Binder	Mean IC50 (nM), SBE-bla HEK 293T Cell Sensor assay (h2) [1]	Kd [3]	koff [3]	kon [3]	Kd [8]	Kd [9]	Kd [10]	Human Cell sensor IC50 [11]	Mouse 3T3 Luciferase assay IC50 [12]	other results
B1	540 nM	4.13 nM	0.0211 s⁻¹	5.11e+06 M⁻¹ s⁻¹						KD Fold improvement [2]: 91.7 fold; ka Fold improvement [2]: 5.6 fold; kd Fold improvement [2]: 16.2 fold
B2	18600 nM	18 nM	0.0336 s⁻¹	1.86e+06 M⁻¹ s⁻¹						KD Fold improvement [4]: 52.3 fold; ka Fold improvement [4]: 5.6 fold; kd Fold improvement [4]: 9.4 fold
B3	48 nM	0.799 nM	0.00354 s⁻¹	4.43e+06 M⁻¹ s⁻¹						KD Fold improvement [5]: 30.3 fold; ka Fold improvement [5]: 2.1 fold; kd Fold improvement [5]: 14.2 fold
B4										Kd [6]: 13.8 nM and 18.4 nM; koff [6]: 0.0419 s⁻¹ and 0.0445 s⁻¹; kon [6]: 3.04e+06 M⁻¹ s⁻¹ and 2.42e+06 M⁻¹ s⁻¹; Kd [7]: 9.49 nM; koff [7]: 0.051 s⁻¹; kon [7]: 5.37e+06 M⁻¹ s⁻¹
B5					0.00999 nM	0.548 nM	0.0112 nM	0.53 nM	1200 nM	
B6					0.0149 nM	1.78 nM	0.024 nM	1.17 nM	11100 nM	

Reference: patent publication US20150361176A1 (GlaxoSmithKline, published 2015)
